From patent US20170306036A1 (ENGMAB, published 2017)
Where “and” joins values, the source holds several entries; their conditions need not be identical. Equal entries are not always repeated.

Experiments:
[1] = target: T1, human CD3ε on Jurkat T cells (human, UniProt P07766 23-207); assay: flow cytometry on CD3-positive Jurkat T cells
T1 construct: whole, on cells; On cells it is part of the TCR/CD3 complex; also called CD3-positive Jurkat T cells
Experimental: Jurkat T cells were cultured in RPMI supplemented with 10% heat-inactivated FCS. Briefly, cultured cells were harvested, counted and cell viability was evaluated using ViCell. Viable cells were then adjusted to 2×10⁶ cells per ml in FACS Stain Buffer (BD Biosciences) containing 0.1% BSA. 100 μl of this cell suspension were further aliquoted per well into a round-bottom 96-well plate. 30 μl of the anti-BCMA/anti-CD3 TCB antibodies or corresponding IgG control were added to the cell-containing wells to obtain final concentrations of 3 nM to 500 nM or 0.1 pM to 200 nM. Anti-BCMA/anti-CD3 TCB antibodies and control IgG were used at the same molarity. After incubation for 30 min at 4° C., cells were centrifuged (5 min, 350×g), washed twice with 150 μl/well BSA-containing FACS Stain Buffer (BD Biosciences), then cells were fixed using 100 ul BD Fixation buffer per well (#BD Biosciences, 554655) at 4° C. for 20 min, resuspended in 120 μl FACS buffer and analyzed using BD FACS Cantoll. Binding of the anti-BCMA/anti-CD3 TCB antibodies to T cells were evaluated and the median fluorescence intensity was determined gated on CD3-expressing Jurkat T cells and plotted in histograms or dot plots.

[2] = target: T2, human BCMA on human myeloma cells (H929, L363, RPMI-8226, JJN-3, patient myeloma plasma cells) (human, UniProt Q02223 1-184); assay: cell-based or functional assay
T2 sequence (looked up): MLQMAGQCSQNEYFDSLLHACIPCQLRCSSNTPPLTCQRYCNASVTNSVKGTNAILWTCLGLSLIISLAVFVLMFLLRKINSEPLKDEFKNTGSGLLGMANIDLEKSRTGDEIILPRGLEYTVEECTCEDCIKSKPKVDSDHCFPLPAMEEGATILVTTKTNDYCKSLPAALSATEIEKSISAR

[3] = target: T2, human BCMA on human myeloma cells …; assay: cell-based or functional assay; remark: listed apart in the source
[4] = target: T2, human BCMA on human myeloma cells …
[5] = target: T3, cynomolgus BCMA stably expressed on HEK293T cells (cynoBCMA-HEK293T) (cynomolgus, UniProt A0A2K5UD97 1-183); assay: cell-based or functional assay
[6] = target: T2, human BCMA on human myeloma cells …; assay: cell-based or functional assay; remark: listed apart in the source
[7] = target: T4, human BCMA stably expressed on HEK293T cells (huBCMA-HEK293T) (human, UniProt Q02223 1-184)
T4 sequence (looked up): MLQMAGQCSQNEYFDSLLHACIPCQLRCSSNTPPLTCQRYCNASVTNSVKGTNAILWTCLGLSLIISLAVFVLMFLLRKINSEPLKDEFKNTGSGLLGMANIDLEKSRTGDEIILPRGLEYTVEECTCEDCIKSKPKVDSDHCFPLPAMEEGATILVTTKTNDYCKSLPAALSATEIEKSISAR

[8] = target: T3, cynomolgus BCMA stably expressed on …
[9] = target: T5, recombinant human BCMA Fc(kih) (human, UniProt Q02223 4-53, biotinylated at the avi-tag at the C-terminus of the Fc knob chain ; Biotinylated in vivo (BirA) at the avi-tag at the C-terminus of the Fc knob chain. That part is not in the letters.); assay: SPR (Biacore T200, 25 C), IgG captured on anti-human Fab chip, BCMA Fc(kih) as analyte, 1:1 Langmuir fit
T5 construct: Monomeric Fc fusion made by knobs-into-holes; also called huBCMA Fc(kih); biotinylated human BCMA; not shown: Human IgG1 hinge-Fc knob chain with C-terminal avi-tag, and the unfused human IgG1 Fc hole chain
Experimental: The affinity of the interaction between anti-BCMA antibodies and recombinant human BCMA Fc(kih) was also determined. Anti-human Fab antibody (GE Healthcare) was directly coupled on a CMS chip at pH 5.0 using the standard amine coupling kit (Biacore, Freiburg/Germany). The immobilization level was about 6500 RU. […] Recombinant human BCMA Fc(kih) was passed at a […] concentration range (1.95 to 500 nM) with a flow of 30 μL/minutes through the flow cells over 120 seconds. The dissociation was monitored for 120 seconds. Bulk refractive index differences were corrected for by subtracting the response obtained on reference flow cell. […] Kinetic constants were derived using the Biacore T100 Evaluation Software (vAA, Biacore AB, Uppsala/Sweden), to fit rate equations for 1:1 Langmuir binding by numerical integration (Table 7).

[10] = target: T5, recombinant human BCMA Fc(kih); assay: SPR (ProteOn XPR36, 25 C), biotinylated BCMA Fc(kih) on NLC chip, Fab as analyte, monovalent affinity
Experimental: Buffer (PBST) was injected along the sixth channel to provide an “in-line” blank for referencing. Association rate constants (kon) and dissociation rate constants (koff) were calculated using a simple one-to-one Langmuir binding model in ProteOn Manager v3.1 software by simultaneously fitting the association and dissociation sensorgrams. The equilibrium dissociation constant (KD) was calculated as the ratio koff/kon.

[11] = target: T5, recombinant human BCMA Fc(kih); assay: competition ELISA: 500 or 1000 nM Fab on plate-bound biotinylated human BCMA; competitor murine APRIL 50 nM/1200 ng/mL; bound Fab read as OD450
Experimental: 500 nM or 1000 nM purified Fabs were added to saturate the coated human BCMA for 1 h at room temperature. […] The plate was washed 3 times with PBS and anti-FLAG-HRP secondary antibody (1:4000) was added for 1 h. Again, the plate was washed 3 times with PBS and developed by adding 100 ul/well BM Blue POD (Roche). The reaction was stopped by adding 50 ul/well 1M H₂SO₄ and the OD was read at 450 nm (reference at 650 nm) for a final read-out of OD₄₅₀₋₆₅₀.

T3 sequence (A0A2K5UD97 entry or part of it): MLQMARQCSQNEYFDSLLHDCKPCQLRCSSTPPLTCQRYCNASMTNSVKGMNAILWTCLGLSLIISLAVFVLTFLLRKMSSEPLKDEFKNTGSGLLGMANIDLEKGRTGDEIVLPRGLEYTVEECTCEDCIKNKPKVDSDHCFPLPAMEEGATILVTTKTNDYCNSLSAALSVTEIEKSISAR
T1 sequence (P07766 23-207): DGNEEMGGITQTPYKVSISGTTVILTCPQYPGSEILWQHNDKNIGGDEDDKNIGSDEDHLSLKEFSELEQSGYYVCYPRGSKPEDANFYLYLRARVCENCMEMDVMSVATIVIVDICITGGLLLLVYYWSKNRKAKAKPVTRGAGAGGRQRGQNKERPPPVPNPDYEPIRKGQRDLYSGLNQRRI

B1: 83A10-TCBcv (anti-BCMA/anti-CD3 T cell bispecific antibody, 2+1 Fc-containing, with charge variant) (bispecific antibody, human IgG1, kappa, L234A L235A)
heavy 1: not shown
heavy 2: not shown
light 1: EVQLLESGGGLVQPGGSLRLSCAASGFTFSTYAMNWVRQAPGKGLEWVSRIRSKYNNYATYYADSVKGRFTISRDDSKNTLYLQMNSLRAEDTAVYYCVRHGNFGNSYVSWFAYWGQGTLVTVSSASVAAPSVFIFPPSDEQLKSGTASVVCLLNNFYPREAKVQWKVDNALQSGNSQESVTEQDSKDSTYSLSSTLTLSKADYEKHKVYACEVTHQGLSSPVTKSFNRGEC
light 2: not shown
notes: also called 83A10-TCVcv
binding result [1]: binds
EC50 for reduction of viable (annexin-V negative) myeloma plasma cells, bone marrow aspirate Patient 001 [2]: 1 nM
EC50 for reduction of viable (annexin-V negative) myeloma plasma cells, bone marrow aspirate Patient 002 [2]: 8.24 nM
EC50 for reduction of viable (annexin-V negative) myeloma plasma cells, bone marrow aspirate Patient 003 [2]: 8.02 nM
EC50 of Granzyme B secretion, PBMC + RPMI-8226 cells (CBA) [3]: 0.34 nM
EC50 of IL-10 secretion, PBMC + RPMI-8226 cells (CBA) [3]: 0.3 nM
EC50 of TNF-α secretion, PBMC + RPMI-8226 cells (CBA) [3]: 0.52 nM
EC50 [4]: ~17.4 nM and ~2.51 µg/mL
EC50 of lysis of cynoBCMA-HEK cells (LDH release), cyno PBMCs donor 1 [5]: 0.0035 nM
EC50 of lysis of cynoBCMA-HEK cells (LDH release), cyno PBMCs donor 2 [5]: 0.0027 nM
mean EC50 of lysis of cynoBCMA-HEK cells (LDH release) [5]: 0.0031 nM
EC50 of redirected T-cell killing of RPMI-8226 cells (LDH release), Donor 2 [6]: 0.621 nM
EC50 of redirected T-cell killing of RPMI-8226 cells (LDH release), Donor 3 [6]: 0.229 nM
EC50 of redirected T-cell killing of RPMI-8226 cells (LDH release), Donor 4 [6]: 0.035 nM
EC50 of redirected T-cell killing of RPMI-8226 cells (LDH release), Donor 5 [6]: 0.0649 nM
EC50 [7]: 15.6 nM
EC50 [8]: 7.8 nM

B2: 17A5-TCBcv (anti-BCMA/anti-CD3 T cell bispecific antibody, 2+1 Fc-containing, with charge variant) (bispecific antibody, human IgG1, kappa, L234A L235A)
heavy 1: not shown
heavy 2: not shown
light 1: EVQLLESGGGLVQPGGSLRLSCAASGFTFSTYAMNWVRQAPGKGLEWVSRIRSKYNNYATYYADSVKGRFTISRDDSKNTLYLQMNSLRAEDTAVYYCVRHGNFGNSYVSWFAYWGQGTLVTVSSASVAAPSVFIFPPSDEQLKSGTASVVCLLNNFYPREAKVQWKVDNALQSGNSQESVTEQDSKDSTYSLSSTLTLSKADYEKHKVYACEVTHQGLSSPVTKSFNRGEC
light 2: not shown
binding result [1]: binds

B3: 13A4 anti-BCMA IgG (antibody, V domains shown)
VH: EVQLVQSGAEVKKPGESLKISCKGSGYSFTSYWIGWVRQMPGKGLEWMGIIYPGDSDTRYSPSFQGQVTISADKSISTAYLQWSSLKASDTAMYYCARNGYLGDYWGQGTLVTVSS
VL: not shown
notes: also called anti-BCMA antibody clone 13A4; MAB 13A4
Kd [9]: 5.1 nM
koff [9]: 0.00036 s⁻¹
kon [9]: 72000 M⁻¹ s⁻¹

B4: anti-BCMA Fab clone 13A4 (Fab, V domains shown)
VH: EVQLVQSGAEVKKPGESLKISCKGSGYSFTSYWIGWVRQMPGKGLEWMGIIYPGDSDTRYSPSFQGQVTISADKSISTAYLQWSSLKASDTAMYYCARNGYLGDYWGQGTLVTVSS
VL: not shown
notes: Phage-display Fab (Vk2D_28/VH5_1), bacterially expressed
Kd [10]: 1.8 nM
reduction in OD (450 nm) in absence vs. presence of murine Δ-APRIL [11]: 13.1%
